US7829301B2, “Screening assays for binding antagonists of the AMD-associated variant of factor H (H384)” (The University of Manchester, priority 2006, dated 2010)

Target: T1, full length FH (Homo sapiens, UniProt P08603)
T1 construct: Purification of Full-Length Factor H from Human Serum; from tissue; host or cells: human serum
Experiment: Binding of full length FH to untreated and N-glycosidase F-treated FMOD
Details: p<10-4 for all data points above zero
Procedure: FMOD was isolated from bovine articular cartilage (Heinghrd et al., (1986) J. Biol. Chem. 261, 13866-13872) and recombinant CRP was obtained from Calbiochem. Deglycosylated FMOD was prepared by treatment with N-glycosiadase F (Roche Applied Science) as previously described (Sjöberg et al. (2005) J. Biol. Chem. 280, 32301-32308).
CRP or FMOD was coated overnight at 4° C. onto microtiter plates (Maxisorp, Nunc) at a concentration of 10 μg/ml in 75 mM sodium carbonate buffer, pH 9.6. Wells treated only with coating buffer or 1% (w/v) BSA (Sigma) in coating buffer (for the assays involving FMOD) were used as negative controls. Between each step the wells were washed extensively with 50 mM Tris-HCl, 150 mM NaCl, 0.1% (v/v) Tween 20, pH 7.5. All wells were blocked with 1% (w/v) BSA (Sigma) in phosphate buffered saline (Invitrogen) for 1 hour at 37° C. […] The amount of bound protein was assessed using a goat polyclonal anti-FH antibody (Quidel, Cat # A312) followed by HRP-labeled anti-goat secondary antibodies (Dako) and the OPD development kit (Dako). Detection of biotinylated protein was performed using a StreptABComplex/HRP-kit from Dako, and in both cases the absorbance at 490 nm was measured to quantify protein binding.

T1 sequence (P08603 19-1231): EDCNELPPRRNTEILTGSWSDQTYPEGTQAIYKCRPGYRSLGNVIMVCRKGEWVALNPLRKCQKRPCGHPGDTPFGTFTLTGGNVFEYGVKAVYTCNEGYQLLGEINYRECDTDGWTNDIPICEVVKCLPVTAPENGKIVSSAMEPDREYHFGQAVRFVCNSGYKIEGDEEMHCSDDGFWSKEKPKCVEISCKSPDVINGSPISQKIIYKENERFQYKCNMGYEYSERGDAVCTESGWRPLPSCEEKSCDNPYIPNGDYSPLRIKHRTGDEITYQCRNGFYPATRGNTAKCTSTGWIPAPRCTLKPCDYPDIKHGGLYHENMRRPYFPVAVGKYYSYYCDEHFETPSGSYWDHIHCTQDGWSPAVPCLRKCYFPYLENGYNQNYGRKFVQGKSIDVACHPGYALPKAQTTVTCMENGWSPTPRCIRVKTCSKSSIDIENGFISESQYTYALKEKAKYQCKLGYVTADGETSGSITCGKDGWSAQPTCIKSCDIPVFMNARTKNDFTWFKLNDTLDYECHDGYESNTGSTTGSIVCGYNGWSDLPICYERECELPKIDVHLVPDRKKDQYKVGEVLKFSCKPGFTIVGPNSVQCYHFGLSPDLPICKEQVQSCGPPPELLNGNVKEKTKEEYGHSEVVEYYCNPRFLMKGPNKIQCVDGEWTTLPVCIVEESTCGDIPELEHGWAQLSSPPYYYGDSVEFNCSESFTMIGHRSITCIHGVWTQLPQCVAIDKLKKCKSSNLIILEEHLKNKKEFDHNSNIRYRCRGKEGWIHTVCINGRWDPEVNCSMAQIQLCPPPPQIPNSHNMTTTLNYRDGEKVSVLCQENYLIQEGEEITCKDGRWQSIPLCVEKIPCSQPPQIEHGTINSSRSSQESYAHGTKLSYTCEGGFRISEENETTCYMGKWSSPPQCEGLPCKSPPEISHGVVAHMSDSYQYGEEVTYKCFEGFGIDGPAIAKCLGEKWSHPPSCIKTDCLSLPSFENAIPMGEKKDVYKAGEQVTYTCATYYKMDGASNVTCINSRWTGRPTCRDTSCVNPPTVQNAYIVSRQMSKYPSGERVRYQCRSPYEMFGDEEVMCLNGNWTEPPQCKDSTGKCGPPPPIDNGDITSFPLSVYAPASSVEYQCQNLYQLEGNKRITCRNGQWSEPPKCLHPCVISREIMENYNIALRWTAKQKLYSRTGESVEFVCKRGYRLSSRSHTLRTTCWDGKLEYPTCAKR

binding of FH compared to keratan sulphate-containing FMOD: significantly better
B1: deglycosylated FMOD: fibromodulin from bovine articular cartilage treated with N-glycosidase F to remove N-linked oligosaccharides including keratan sulphate (protein)
chain: QYEEDSHWWFQFLRNQQSTYDDPYDPYPYEPYEPYPYGGEEGPAYAYGSPPQPEPRDCPQECDCPPNFPTAMYCDNRNLKYLPFVPSRMKYVYFQNNQISSIQEGVFDNATGLLWIALHGNQITSDKVGKKVFSKLRHLERLYLDHNNLTRIPSPLPRSLRELHLDHNQISRVPNNALEGLENLTALYLHHNEIQEVGSSMKGLRSLILLDLSYNHLRKVPDGLPSALEQLYLEHNNVFSVPDSYFRGSPKLLYVRLSHNSLTNNGLASNTFNSSSLLELDLSYNQLQKIPPVSTNLENLYLQGNRINEFSISSFCTVVDVMNFSKLQVLRLDGNEIKRSAMPADAPLCLRLASLIEI
